{"source": "patent US20150111306", "about": "“HEMOGLOBIN A1c-SPECIFIC APTAMER, HEMOGLOBIN-SPECIFIC APTAMER, AND APPLICATIONS THEREOF” (National Tsing Hua University, published 2015)", "binders": {"B1": {"name": "Hb-specific aptamer SEQ ID NO: 7 (ssDNA)", "DNA": "GGCAGGAAGACAAACACCAGGTGAGGGAGACGACGCGAGTGTTAGATGGTAGCTGTTGGTCTGTGGTGCTGT"}}, "molecular_target": "Hemoglobin (Hb) (UniProt P69905;P68871 P69905:2-142,P68871:2-147)", "sequence (P69905 2-142, chain 1 of 2)": "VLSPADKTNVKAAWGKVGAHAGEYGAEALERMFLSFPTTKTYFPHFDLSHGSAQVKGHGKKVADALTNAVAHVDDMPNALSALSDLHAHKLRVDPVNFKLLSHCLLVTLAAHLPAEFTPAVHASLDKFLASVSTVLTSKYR", "sequence (P68871 2-147, chain 2 of 2)": "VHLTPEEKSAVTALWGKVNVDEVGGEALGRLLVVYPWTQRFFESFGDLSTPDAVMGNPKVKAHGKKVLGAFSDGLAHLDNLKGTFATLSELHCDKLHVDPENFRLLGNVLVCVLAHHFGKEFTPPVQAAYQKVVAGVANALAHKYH", "experiment": "pulldown; biotin-aptamer streptavidin bead sandwich chemiluminescence in blood, R2=0.9821", "details": "tags: conjugated to magnetic beads; also captured from blood; chain copies: alpha2beta2 tetramer (inferred); label: biotin (blood detection assay); stem-loop (MFOLD, -9.67 kcal/mol)", "description": "The detection of this embodiment is also a two-antibody assay; therefore, please refer to Example 2 for the detection process. In this embodiment, the nucleic acid sequence of SEQ ID NO: 7 with lower free energy was used as the aptamer. The aptamer was labeled by biotin and was used to replace the anti-Hb antibody in the two-antibody assay. The surface of the magnetic bead used was also conjugated with streptavidin. Upon mixing with blood, the hemoglobin-specific aptamer would bind to hemoglobin in blood. After a magnetic field was applied and the unbound substances were washed away, an acridinium ester-labeled anti-Hb antibody was added. The acridinium ester-labeled anti-Hb antibody produces chemiluminescense, thus, can be detected using luminometer.", "data": [{"binder": "B1", "values": [{"measurement": "binding result", "value": "binds"}]}]}
